Measured values from article PMC2063866.

Columns and labels:
[1] = target: FLAG-tagged WAVE2 stably expressed in A431 cells (UniProt Q9Y6W5); assay: co-IP
[2] = target: Recombinant full-length WAVE2 tagged with GST at its COOH terminus (UniProt Q9Y6W5); assay: dual polarization interferometry
Recombinant full-length WAVE2 tagged with GST at its COOH terminus, sequence (Q9Y6W5 whole entry): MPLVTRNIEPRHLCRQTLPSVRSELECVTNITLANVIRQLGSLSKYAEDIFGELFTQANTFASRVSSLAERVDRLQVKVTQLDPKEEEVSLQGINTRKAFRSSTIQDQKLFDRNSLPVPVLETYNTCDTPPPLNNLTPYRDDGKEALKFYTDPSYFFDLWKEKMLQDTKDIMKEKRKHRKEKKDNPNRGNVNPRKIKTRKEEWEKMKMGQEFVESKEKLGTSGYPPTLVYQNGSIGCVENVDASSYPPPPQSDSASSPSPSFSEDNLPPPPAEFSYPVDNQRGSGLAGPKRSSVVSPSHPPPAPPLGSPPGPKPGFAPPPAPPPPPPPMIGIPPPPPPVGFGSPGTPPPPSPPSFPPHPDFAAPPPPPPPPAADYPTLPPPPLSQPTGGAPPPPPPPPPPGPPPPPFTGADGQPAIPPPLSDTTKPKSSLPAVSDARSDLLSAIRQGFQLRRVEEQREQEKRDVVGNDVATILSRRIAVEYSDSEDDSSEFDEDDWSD

FLAG-tagged WAVE2 stably expressed in A431 cells, sequence (Q9Y6W5 whole entry): as above

Substance	molar ratio of IRSp53 to WAVE2 in the purified complex [1]	Kd [2] [µM]
IRSp53, endogenous in A431 cells (from UniProt Q9UQB8 1-552) (natural protein)	0.0005	
SH3 domain of IRSp53 (aa 363–521) (from UniProt Q9UQB8 363-521) (domain or fragment)		5.7
